Consider one substance from paper PMC9850916.

This test deals with mutant human FcγRIIIa (V158) ectodomain (amino acid residues 1–175) with nine amino acid mutations a (human). In words: SPR.

In the case of Expi293-derived adalimumab (antibody), the Kd was determined as 1550 nM, the koff amounted to 0.062 s⁻¹ and the kon worked out at 40000 M⁻¹ s⁻¹.
